Reference: US20170058005A1 (priority 2014, published 2017)
pIC50: −log10 of the molar value. Where no end group is shown, it is not given here.

Experiments:
[1] = biological target: DRB1*0101 (DR1) (Homo sapiens, UniProt P01903+P01911, A100R/D57E/F55L/F60I/F76Y/I96L/L162R/M171V/P40L/Q125E/R42F/V115G/Y59C); type: binding
[2] = biological target: DRB1*0301 (DR3) (Homo sapiens, UniProt P01903+P01911, A100K/A102G/A103R/A169T/F55Y/I96L/K41T/L162R/M171V/P40S/Q125H/Q178H/Q39Y/R42S/S66N/T106N/T262R/W38E/Y61H); type: binding
[3] = biological target: DRB1*0401 (DR4) (Homo sapiens, UniProt P01903+P01911, A100K/A169T/F76Y/I96L/K127E/L162R/M171V/N62H/P40V/Q125Y/R42H/S133A/S149N/S66Y/V115G/V209L/W38E); type: binding
[4] = biological target: DRB1*0701 (DR7) (Homo sapiens, UniProt P01903+P01911, A100R/A102G/A103Q/D57E/D86V/E43K/F76Y/K127E/L162R/M171V/P40G/Q125H/Q99D/R33Q/R42Y/R54Q/S133A/S66F/T210M/V115G/Y107V/Y59L/Y89S); type: binding
[5] = biological target: DRB1*1101 (DR11) (Homo sapiens, UniProt P01903+P01911, A100R/A169T/A87E/I96F/K41T/L162R/M171V/P40S/Q125H/Q178H/Q39Y/Q99D/R42S/S66Y/T262R/V115G/W38E); type: binding
[6] = biological target: DRB1*1301 (DR13) (Homo sapiens, UniProt P01903+P01911, A100E/A169T/K41T/L162R/M171V/P40S/Q125H/Q178H/Q39Y/Q99D/R42S/S66N/T262R/W38E/Y61H); type: binding
[7] = biological target: DRB1*1501 (DR15) (Homo sapiens, UniProt P01903+P01911); type: binding
[8] = test system: CD4^+ T cells of HLA class II transgenic mice; type: cell-based
[9] = test system: HLA-DR molecules; type: binding, human

Row | Sequence | Relative binding affinity of peptide to HLA-DR molecules, DR1 [1] | Relative binding affinity of peptide to HLA-DR molecules, DR3 [2] | Relative binding affinity of peptide to HLA-DR molecules, DR4 [3] | Relative binding affinity of peptide to HLA-DR molecules, DR7 [4] | Relative binding affinity of peptide to HLA-DR molecules, DR11 [5] | Relative binding affinity of peptide to HLA-DR molecules, DR13 [6] | Relative binding affinity of peptide to HLA-DR molecules, DR15 [7] | HLA-restriction based on CD4 T cell response class II HLA transgenics after priming with LF [8] | Binding across all HLA-DR alleles assayed [9] | CD4 T cell response in LF immunized HLA transgenics [8] | pIC50 ([6]; read-out: IC50 of reference peptide)
1 | AKAFAYYIEPQHRDVLQLYA | 115 | 39 | 51 | 97 | 4 | 9 | 8 | DR1 | strong to moderate binding across all seven HLA-DR alleles |  | 
2 | AVDDYAGYLLDKNQSDLVTN | 1,380 | 42 | 10 | 1,789 | 55 | >2 733 | 0.1 | DR4, DR15 |  | HLA-DR4 and HLA-DR15 restricted | 
3 | DTGGLIDSPSINLDVRKQYK | 866 | 0.3 | 935 | 15 | 179 | 8 | 130 | DR15 |  |  | 
4 | EIMKHIVKIEVKGEEAVKKE | 243 | 50 | 567 | 249 | 4 | 19 | 329 | DQ8 |  |  | 
5 | IGLEIKDVQIIKQSEKEYIRIDAKVVP | 1 | 2 | 919 | 7 | 73 | 24 | 1 | DR1, DR15 |  |  | 
6 | KELLNRIQVDSSNPLSEKEK | 146 | 1 | 0 | 36 | 274 | 1,714 | 1 | DQ8 |  |  | 
7 | KLITFNVHNRYASNIVESAY | 35 | 0.4 | 3 | 72 | 7 | 0.5 | 5 | DR1, DR4 |  |  | 
8 | LLFTNQLKEHPTDFSVEFLE | 909 | >76 | 6 | 51 | 148 | >172 | 193 | DQ8 |  |  | 
9 | NEQEINLSLEELKDQRMLSR [LF 281-300] |  |  |  |  |  |  |  |  |  | did not induce a response in any of the HLA transgenics | 
10 | PEAFNYMDKFNEQEINLSLE | 2156 | >76 | 2 | 42 | 2 | >172 | 463 | DQ8 |  |  | 
11 | PKSKIDTKIQEAQLNINQEW [LF584-603] |  |  |  |  |  |  |  |  |  | did not induce any response in any of the HLA transgenics | 
12 | RNKTQEEHLKEIMKHIVKIE | 4810 | >76 | >1 539 | 77 | 2 | 8 | >2 184 | DQ8 |  |  | 
13 | SEGFIHEFGHAVDDYAGYLL | 5 | >1 000 | 46 | 131 | 849 | >2 733 | 0.04 | DR15 |  | immunodominant epitopes in HLA-DR15 transgenics | 
14 | SKKFIDIFKEEGSNLTSYGR | 4 | 474 | 0.2 | 302 | 0.4 | 1,225 | 1 | DR4 |  | HLA-DR4 and HLA-DR15 restricted | 
15 | TERVRLVTRHIYNREE [B1 21-36, reference compound] |  |  |  |  |  |  |  |  |  |  | 7.43
16 | VLVIQSSEDYVENTEKALNV | 1702 | 82 | 29 | 66 | 168 | >172 | 958 | DR1 |  |  | 
17 | YGKDALLHEHYVYAKEGYEP | 199 | >76 | 168 | 441 | 9 | 6 | 4000 | DQ8 |  |  | 
18 | YLVDGNGRFVFTDITLPNIA | 123 | 0.3 | 0.3 | 19 | 45 | >2 733 | 2 | DR4 |  | elicited a T cell response in a single HLA transgenic strain | 
19 | YVYAKEGYEPVLVIQSSEDY | 771 | >238 | 555 | 1182 | 14 | 3 | >262 | DR1, DQ8 |  |  | 
20 | YYEIGKILSRDILSKINQPY | 69 | 3 | 19 | 4 | 0.4 | 5 | 43 | DQ8 |  |  | 
